The values that follow come from publication PMC10786891, “Massively parallel profiling of RNA-targeting CRISPR-Cas13d”.

B1: target 1 insU 3' of 21,insU 3' of 14 (mixed)
RNA 1: CACCCGUGCAAAAAUGCAGGGGUCUAAAACUGAGCGGAUAACCUCUCUAUGG
RNA 2: GGGAAUGGAUCCACAUCUACGAAUUCGUACCUAUAGAGAUGGUUAUCCGCUCACCGAGAUCGGAAGAGCACACGU
B2: target 1 insC 3' of 11,insC 3' of 3 (mixed)
RNA 1: CACCCGUGCAAAAAUGCAGGGGUCUAAAACUGAGCGGAUAACCUCUCUAUGG
RNA 2: GGGAAUGGAUCCACAUCUACGAAUUCGUACCAUAGAGAGGUCUAUCCGCUCCACCGAGAUCGGAAGAGCACACGU
B3: target 1 C4A,G13U (mixed)
RNA 1: CACCCGUGCAAAAAUGCAGGGGUCUAAAACUGAGCGGAUAACCUCUCUAUGG
RNA 2: GGGAAUGGAUCCACAUCUACGAAUUCGUACCAUAGAGAUGUUAUCCGAUCACCGAGAUCGGAAGAGCACACGU
B4: target 1 insU 3' of 12,insG 3' of 4 (mixed)
RNA 1: CACCCGUGCAAAAAUGCAGGGGUCUAAAACUGAGCGGAUAACCUCUCUAUGG
RNA 2: GGGAAUGGAUCCACAUCUACGAAUUCGUACCAUAGAGAGGUUUAUCCGCGUCACCGAGAUCGGAAGAGCACACGU
B5: target 1 insG 3' of 20,insA 3' of 7 (mixed)
RNA 1: CACCCGUGCAAAAAUGCAGGGGUCUAAAACUGAGCGGAUAACCUCUCUAUGG
RNA 2: GGGAAUGGAUCCACAUCUACGAAUUCGUACCAGUAGAGAGGUUAUCACGCUCACCGAGAUCGGAAGAGCACACGU
B6: target 1 U10A,A16U (mixed)
RNA 1: CACCCGUGCAAAAAUGCAGGGGUCUAAAACUGAGCGGAUAACCUCUCUAUGG
RNA 2: GGGAAUGGAUCCACAUCUACGAAUUCGUACCAUAGUGAGGUAAUCCGCUCACCGAGAUCGGAAGAGCACACGU
B7: target 1 C21A (mixed)
RNA 1: CACCCGUGCAAAAAUGCAGGGGUCUAAAACUGAGCGGAUAACCUCUCUAUGG
RNA 2: GGGAAUGGAUCCACAUCUACGAAUUCGUACAAUAGAGAGGUUAUCCGCUCACCGAGAUCGGAAGAGCACACGU
B8: target 1 A9G (mixed)
RNA 1: CACCCGUGCAAAAAUGCAGGGGUCUAAAACUGAGCGGAUAACCUCUCUAUGG
RNA 2: GGGAAUGGAUCCACAUCUACGAAUUCGUACCAUAGAGAGGUUGUCCGCUCACCGAGAUCGGAAGAGCACACGU
B9: target 1 insC 3' of 14,insC 3' of 5 (mixed)
RNA 1: CACCCGUGCAAAAAUGCAGGGGUCUAAAACUGAGCGGAUAACCUCUCUAUGG
RNA 2: GGGAAUGGAUCCACAUCUACGAAUUCGUACCAUAGAGACGGUUAUCCGCCUCACCGAGAUCGGAAGAGCACACGU
B10: target 1 insC 3' of 18,insU 3' of 6 (mixed)
RNA 1: CACCCGUGCAAAAAUGCAGGGGUCUAAAACUGAGCGGAUAACCUCUCUAUGG
RNA 2: GGGAAUGGAUCCACAUCUACGAAUUCGUACCAUACGAGAGGUUAUCCUGCUCACCGAGAUCGGAAGAGCACACGU
B11: target 1 U8C,U19G (mixed)
RNA 1: CACCCGUGCAAAAAUGCAGGGGUCUAAAACUGAGCGGAUAACCUCUCUAUGG
RNA 2: GGGAAUGGAUCCACAUCUACGAAUUCGUACCAGAGAGAGGUUACCCGCUCACCGAGAUCGGAAGAGCACACGU
B12: target 1 C7G,U19C (mixed)
RNA 1: CACCCGUGCAAAAAUGCAGGGGUCUAAAACUGAGCGGAUAACCUCUCUAUGG
RNA 2: GGGAAUGGAUCCACAUCUACGAAUUCGUACCACAGAGAGGUUAUGCGCUCACCGAGAUCGGAAGAGCACACGU
B13: target 1 insG 3' of 14,insG 3' of 11 (mixed)
RNA 1: CACCCGUGCAAAAAUGCAGGGGUCUAAAACUGAGCGGAUAACCUCUCUAUGG
RNA 2: GGGAAUGGAUCCACAUCUACGAAUUCGUACCAUAGAGAGGGUGUAUCCGCUCACCGAGAUCGGAAGAGCACACGU
B14: target 1 insC 3' of 8,insG 3' of 2 (mixed)
RNA 1: CACCCGUGCAAAAAUGCAGGGGUCUAAAACUGAGCGGAUAACCUCUCUAUGG
RNA 2: GGGAAUGGAUCCACAUCUACGAAUUCGUACCAUAGAGAGGUUAUCCCGCUCGACCGAGAUCGGAAGAGCACACGU
B15: target 1 insU 3' of 12 (mixed)
RNA 1: CACCCGUGCAAAAAUGCAGGGGUCUAAAACUGAGCGGAUAACCUCUCUAUGG
RNA 2: GGGAAUGGAUCCACAUCUACGAAUUCGUACCAUAGAGAGGUUUAUCCGCUCACCGAGAUCGGAAGAGCACACGU
B16: target 1 insU 3' of 9,insG 3' of 9 (mixed)
RNA 1: CACCCGUGCAAAAAUGCAGGGGUCUAAAACUGAGCGGAUAACCUCUCUAUGG
RNA 2: GGGAAUGGAUCCACAUCUACGAAUUCGUACCAUAGAGAGGUUAUGUCCGCUCACCGAGAUCGGAAGAGCACACGU
B17: target 1 insA 3' of 12,insG 3' of 8 (mixed)
RNA 1: CACCCGUGCAAAAAUGCAGGGGUCUAAAACUGAGCGGAUAACCUCUCUAUGG
RNA 2: GGGAAUGGAUCCACAUCUACGAAUUCGUACCAUAGAGAGGAUUAUGCCGCUCACCGAGAUCGGAAGAGCACACGU
B18: target 1 A14G,G17U (mixed)
RNA 1: CACCCGUGCAAAAAUGCAGGGGUCUAAAACUGAGCGGAUAACCUCUCUAUGG
RNA 2: GGGAAUGGAUCCACAUCUACGAAUUCGUACCAUAUAGGGGUUAUCCGCUCACCGAGAUCGGAAGAGCACACGU
B19: target 1 C7U,U11G (mixed)
RNA 1: CACCCGUGCAAAAAUGCAGGGGUCUAAAACUGAGCGGAUAACCUCUCUAUGG
RNA 2: GGGAAUGGAUCCACAUCUACGAAUUCGUACCAUAGAGAGGGUAUUCGCUCACCGAGAUCGGAAGAGCACACGU
B20: target 1 insU 3' of 5,insU 3' of 5 (mixed)
RNA 1: CACCCGUGCAAAAAUGCAGGGGUCUAAAACUGAGCGGAUAACCUCUCUAUGG
RNA 2: GGGAAUGGAUCCACAUCUACGAAUUCGUACCAUAGAGAGGUUAUCCGUUCUCACCGAGAUCGGAAGAGCACACGU
B21: target 1 A1C,G12U (mixed)
RNA 1: CACCCGUGCAAAAAUGCAGGGGUCUAAAACUGAGCGGAUAACCUCUCUAUGG
RNA 2: GGGAAUGGAUCCACAUCUACGAAUUCGUACCAUAGAGAGUUUAUCCGCUCCCCGAGAUCGGAAGAGCACACGU
B22: target 1 C6U,U11C (mixed)
RNA 1: CACCCGUGCAAAAAUGCAGGGGUCUAAAACUGAGCGGAUAACCUCUCUAUGG
RNA 2: GGGAAUGGAUCCACAUCUACGAAUUCGUACCAUAGAGAGGCUAUCUGCUCACCGAGAUCGGAAGAGCACACGU
B23: target 1 C6U,U19A (mixed)
RNA 1: CACCCGUGCAAAAAUGCAGGGGUCUAAAACUGAGCGGAUAACCUCUCUAUGG
RNA 2: GGGAAUGGAUCCACAUCUACGAAUUCGUACCAAAGAGAGGUUAUCUGCUCACCGAGAUCGGAAGAGCACACGU
B24: target 1 G12U (mixed)
RNA 1: CACCCGUGCAAAAAUGCAGGGGUCUAAAACUGAGCGGAUAACCUCUCUAUGG
RNA 2: GGGAAUGGAUCCACAUCUACGAAUUCGUACCAUAGAGAGUUUAUCCGCUCACCGAGAUCGGAAGAGCACACGU
B25: target 1 U3A,U8A (mixed)
RNA 1: CACCCGUGCAAAAAUGCAGGGGUCUAAAACUGAGCGGAUAACCUCUCUAUGG
RNA 2: GGGAAUGGAUCCACAUCUACGAAUUCGUACCAUAGAGAGGUUAACCGCACACCGAGAUCGGAAGAGCACACGU
B26: target 1 insC 3' of 14,insA 3' of 11 (mixed)
RNA 1: CACCCGUGCAAAAAUGCAGGGGUCUAAAACUGAGCGGAUAACCUCUCUAUGG
RNA 2: GGGAAUGGAUCCACAUCUACGAAUUCGUACCAUAGAGACGGUAUAUCCGCUCACCGAGAUCGGAAGAGCACACGU
B27: target 1 A1G,G12U (mixed)
RNA 1: CACCCGUGCAAAAAUGCAGGGGUCUAAAACUGAGCGGAUAACCUCUCUAUGG
RNA 2: GGGAAUGGAUCCACAUCUACGAAUUCGUACCAUAGAGAGUUUAUCCGCUCGCCGAGAUCGGAAGAGCACACGU

The target of the data set is T1, EsCas13d, nuclease-dead (Eubacterium siraeum, UniProt B0MS50, R295A;H300A;R849A;H854A).
T1 sequence: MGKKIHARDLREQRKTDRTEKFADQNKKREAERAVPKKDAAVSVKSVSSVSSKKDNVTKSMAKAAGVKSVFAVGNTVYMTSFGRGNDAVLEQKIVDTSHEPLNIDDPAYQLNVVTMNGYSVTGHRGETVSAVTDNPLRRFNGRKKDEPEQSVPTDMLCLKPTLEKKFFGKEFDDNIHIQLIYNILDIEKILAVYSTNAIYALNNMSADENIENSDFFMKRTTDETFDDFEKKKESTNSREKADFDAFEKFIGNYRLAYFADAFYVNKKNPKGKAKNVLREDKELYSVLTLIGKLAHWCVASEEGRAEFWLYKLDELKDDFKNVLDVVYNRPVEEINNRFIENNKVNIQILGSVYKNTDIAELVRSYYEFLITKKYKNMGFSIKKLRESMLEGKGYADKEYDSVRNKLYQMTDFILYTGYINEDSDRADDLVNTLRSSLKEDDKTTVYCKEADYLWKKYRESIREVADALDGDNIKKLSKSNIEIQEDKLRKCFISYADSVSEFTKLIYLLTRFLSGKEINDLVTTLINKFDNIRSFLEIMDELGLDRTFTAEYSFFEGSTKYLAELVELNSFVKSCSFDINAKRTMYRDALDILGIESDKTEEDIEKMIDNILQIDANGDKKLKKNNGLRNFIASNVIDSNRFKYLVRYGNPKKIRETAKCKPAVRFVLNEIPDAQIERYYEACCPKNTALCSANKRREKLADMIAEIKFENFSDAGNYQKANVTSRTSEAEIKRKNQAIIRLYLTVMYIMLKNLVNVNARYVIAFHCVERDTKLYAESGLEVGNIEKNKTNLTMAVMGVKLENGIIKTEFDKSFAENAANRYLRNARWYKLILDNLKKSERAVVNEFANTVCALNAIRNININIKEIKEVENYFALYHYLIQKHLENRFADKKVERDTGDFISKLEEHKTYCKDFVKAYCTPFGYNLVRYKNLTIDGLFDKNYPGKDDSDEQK
The data set is described as follows: crRNA (strand 1, pre-loaded); Mg2+; 40 mM Tris-HCl pH 7.5, 150 mM NaCl, 6 mM MgCl2, 1 mM DTT, 0.1% Tween-20, 0.2 mg/ml BSA; 25 C; 10 min per concentration, then washed. The note with it: tags: His6-TwinStrep-SUMO cleaved; N-terminal SNAP kept (SNAP-Surface 488); label: 3' end held by stalled T7 RNA polymerase.
By Kd is commonly meant the free concentration of one partner at which half of the binding sites on the other are occupied at equilibrium, for simple one-to-one binding. Read a low Kd as tighter binding. Molecule B1 came in with a dissociation constant Kd of 45 ± 9 nM.
B2 displayed a Kd of 28.9 ± 2.7 nM.
With B3 the figure was around 70 nM; with B4, 4.6 ± 0.17 nM.
In turn, B5 gave a dissociation constant (Kd) of 26.1 ± 3 nM.
With B6 the figure was 42 ± 4 nM; with B7, 24.1 ± 2 nM.
With B8 the figure was 13.2 ± 0.4 nM; with B9, 75 ± 17 nM; with B10, 39 ± 4 nM.
To B11 belongs 76 ± 10 nM; to B12, 32.2 ± 2.7 nM; to B13, 20.7 ± 0.9 nM.
For the molecule B14, binding was characterised by a dissociation constant (Kd) of 21 ± 1.5 nM.
With B15 the figure was 7.54 ± 0.28 nM; with B16, 13.2 ± 0.5 nM.
With B17 the figure was 32 ± 2.7 nM; with B18, 78 ± 15 nM.
To B19 belongs 9.7 ± 0.6 nM; to B20, 19 ± 4 nM.
With B21, the affinity, expressed as Kd, was 13.9 ± 2.1 nM.
With B22 the figure was 9.1 ± 0.6 nM.
To B23 belongs 34.9 ± 2.4 nM; to B24, 10.3 ± 0.5 nM.
Regarding B25, binding was put at a Kd of 10.6 ± 0.5 nM.
With B26 the figure was 42 ± 5 nM; with B27, 9.4 ± 0.6 nM.
